Results reported in paper PMC4089486, “Structural and biochemical analyses of alanine racemase from the multidrug-resistant Clostridium difficile strain 630” (Acta Crystallographica Section D: Biological Crystallography, 2014).

Legend:
[1] = system: C[C@@H](N)C(=O)O; assay: chiral HPLC of alanine enantiomers, initial rates; format: biochemical, Clostridioides difficile; settings: D-Ala to L-Ala, 50 mM sodium borate pH 8.5, WT preparation partly cleaved at position 271
Excerpt: (§1) chiral HPLC of alanine enantiomers, initial rates on CdAlr (C. difficile alanine racemase; CdAlrWT)

[2] = system: C[C@H](N)C(=O)O; assay: chiral HPLC of alanine enantiomers, initial rates; format: biochemical, Clostridioides difficile; settings: L-Ala to D-Ala, 50 mM sodium borate pH 8.5, WT preparation partly cleaved at position 271
Excerpt: as §1

[3] = biological target: Clostridium difficile strain 630 alanine racemase, recombinant wild type (Clostridium difficile strain 630); assay: SEC-MALS

Substance | Km [1] | Vmax [1] | kcat [1] | Km [2] | kcat [2] | stoichiometry N [3]
CdAlr (C. difficile alanine racemase; CdAlrWT) (Clostridioides difficile 630) | 7 mM | 26.7 µmol/min/mg | 19.2 s⁻¹ | 17.6 mM | 59.3 s⁻¹ | 
Clostridium difficile strain 630 alanine racemase, recombinant wild type (from UniProt A0AC59G415 1-385) (enzyme) |  |  |  |  |  | 2
